B1: FBF1 (parent)
chain: QLQCSPAELQAELLHSQARLAELE
B2: ZNF75A (parent)
chain: RTHTGEQPYTCSICRRNFSRRSSL

Variants of: B1
Assay: protein stability index of a GFP-peptide fusion (GPS, HEK-293T) (PSI 1-6); higher = more stable
Details: c terminus: a fixed tail appended
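Also: lentivirally expressed fusions sorted by FACS into six bins by GFP to DsRed ratio, PSI derived from sequencing read proportions per bin multiplied by bin number.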

Row | Variant | protein stability index
1 | L23I | 2.59
2 | L23E | 4.48
3 | L23N | 4.79
4 | L23K | 4.65
5 | L23R | 4.14
6 | L23G | 4.71
7 | L23V | 3.03
8 | L23A | 4.59
9 | L23T | 4.18
10 | L23C | 3.66
11 | L23Q | 4.98
12 | L23M | 3.38
13 | L23S | 4.84
14 | L23W | 3.71
15 | L23F | 2.75
16 | L23P | 4.03
17 | L23Y | 3.26
18 | L23D | 5.07
19 | L23H | 4
20 | L20T | 4.66
21 | L20P | 4.76
22 | L20K | 4.66
23 | L20R | 4.62
24 | L20W | 4.22

Row | Variant | protein stability index
25 | L20E | 4.63
26 | L20I | 3.59
27 | L20C | 3.35
28 | L20S | 4.7
29 | L20F | 3.37
30 | L20N | 4.96
31 | L20Q | 5.33
32 | L20V | 3.34
33 | L20A | 4.91
34 | L20G | 4.74
35 | L20Y | 4.12
36 | L20D | 4.91
37 | L20H | 4.05
38 | L20M | 3.87
39 | S16N | 4.33
40 | S16D | 5.03
41 | S16H | 4.46
42 | S16C | 4.23
43 | S16M | 3.33
44 | S16K | 3.9
45 | S16T | 2.95
46 | S16R | 4.02
47 | S16E | 4.81
48 | S16V | 4.15

Row | Variant | protein stability index
49 | S16Y | 3.49
50 | S16P | 4.17
51 | S16L | 3.91
52 | S16W | 3.35
53 | S16A | 2.88
54 | S16I | 2.81
55 | S16Q | 4.06
56 | S16G | 4.86
57 | S16F | 3.78
58 | A18D | 4.03
59 | A18R | 3.24
60 | A18H | 2.85
61 | A18G | 4.23
62 | A18Y | 2.81
63 | A18Q | 3.66
64 | A18P | 3.96
65 | A18T | 3.42
66 | A18N | 3.12
67 | A18M | 2.77
68 | A18E | 3.95
69 | A18I | 3.13
70 | A18F | 2.82
71 | A18V | 2.98
72 | A18C | 3.27

Row | Variant | protein stability index
73 | A18S | 3.69
74 | A18L | 2.68
75 | A18K | 2.77
76 | A18W | 2.18
77 | A21L | 2.63
78 | A21D | 2.68
79 | A21E | 2.61
80 | A21N | 3.41
81 | A21R | 3.25
82 | A21S | 3.31
83 | A21W | 2.8
84 | A21M | 2.31
85 | A21K | 3.29
86 | A21T | 2.86
87 | A21G | 3.79
88 | A21V | 3.14
89 | A21C | 3.01
90 | A21I | 2.55
91 | A21F | 2.72
92 | A21H | 2.98
93 | A21Y | 2.31
94 | A21Q | 2.67
95 | A21P | 3.75
96 | E24N | 3.29

Row | Variant | protein stability index
97 | E24K | 3.44
98 | E24T | 3.54
99 | E24G | 3.23
100 | E24D | 2.45
101 | E24A | 3.75
102 | E24W | 2.47
103 | E24I | 3.06
104 | E24M | 2.83
105 | E24F | 2.32
106 | E24P | 3.18
107 | E24S | 2.99
108 | E24H | 3.56
109 | E24L | 2.41
110 | E24R | 3.16
111 | E24Y | 2.36
112 | E24V | 2.81
113 | E24Q | 3.29
114 | E24C | 3.22
115 | H15D | 3.28
116 | H15L | 2.27
117 | H15F | 1.84
118 | H15R | 2.73
119 | H15P | 4.91
120 | H15V | 2.85

Row | Variant | protein stability index
121 | H15K | 3.49
122 | H15N | 2.81
123 | H15W | 2.65
124 | H15T | 3.56
125 | H15Q | 3.71
126 | H15I | 1.87
127 | H15G | 4.04
128 | H15Y | 1.92
129 | H15M | 2.22
130 | H15S | 2.52
131 | H15E | 3.81
132 | E22C | 2.67
133 | E22M | 3.12
134 | E22K | 2.99
135 | E22L | 1.98
136 | E22W | 2.76
137 | E22N | 3.21
138 | E22A | 2.83
139 | E22D | 2.72
140 | E22H | 2.39
141 | E22R | 2.92
142 | E22Y | 2.33
143 | E22P | 3.39
144 | E22Q | 2.53

Row | Variant | protein stability index
145 | E22S | 2.48
146 | E22V | 2.54
147 | E22G | 2.91
148 | E22F | 2.25
149 | E22T | 2.34
150 | E22I | 2.16
151 | Q17T | 3.97
152 | Q17W | 3.16
153 | Q17E | 3.77
154 | Q17K | 4.11
155 | Q17H | 4.31
156 | Q17I | 3.07
157 | Q17S | 3.98
158 | Q17A | 3.4
159 | Q17C | 3.62
160 | Q17R | 3.68
161 | Q17F | 3.26
162 | Q17V | 3.44
163 | Q17Y | 3.52
164 | Q17N | 4.25
165 | Q17D | 4.55
166 | Q17M | 3.65
167 | Q17G | 3.74
168 | Q17L | 2.92

Row | Variant | protein stability index
169 | Q17P | 4.52
170 | R19P | 4.61
171 | R19N | 4.2
172 | R19E | 2.89
173 | R19C | 2.84
174 | R19D | 4.27
175 | R19Q | 2.94
176 | R19T | 3.88
177 | R19S | 4.45
178 | R19H | 3.34
179 | R19L | 1.79
180 | R19W | 2.12
181 | R19A | 2.6
182 | R19I | 1.99
183 | R19Y | 1.89
184 | R19M | 1.97
185 | R19G | 4.16
186 | R19K | 3.05
187 | R19F | 2.12
188 | R19V | 2.55

Variants of: B2
Assay: as above
Details: c terminus: a fixed tail appended

Row | Variant | protein stability index
189 | E6M | 2.5
190 | E6H | 3.12
191 | E6Q | 2.62
192 | E6T | 2.94
193 | E6S | 2.3
194 | E6P | 2.63
195 | E6Y | 2.44
196 | E6D | 2.49
197 | E6K | 2.97
198 | E6A | 2.86
199 | E6C | 3.96
200 | E6I | 3.05
201 | E6R | 2.58
202 | E6L | 2.52
203 | E6V | 1.93
204 | E6G | 2.55
205 | E6W | 2.02
206 | E6N | 2.5
207 | E6F | 3.33
208 | G5L | 2.73
209 | G5R | 3.07
210 | G5S | 2.61
211 | G5Y | 2.21
212 | G5Q | 2.81
213 | G5M | 2.86

Row | Variant | protein stability index
214 | G5E | 3.45
215 | G5K | 2.74
216 | G5C | 4.64
217 | G5V | 2.76
218 | G5I | 3.82
219 | G5T | 3.25
220 | G5D | 3.06
221 | G5F | 3.38
222 | G5N | 2.81
223 | G5W | 2.55
224 | G5P | 2.78
225 | G5H | 3.52
226 | G5A | 2.98
227 | Q7T | 2.49
228 | Q7H | 2.63
229 | Q7N | 2.6
230 | Q7D | 3.42
231 | Q7K | 2.59
232 | Q7F | 2.8
233 | Q7A | 3.14
234 | Q7I | 2.63
235 | Q7L | 2.7
236 | Q7S | 2.24
237 | Q7V | 2.41
238 | Q7W | 2.83

Row | Variant | protein stability index
239 | Q7R | 2.96
240 | Q7E | 3.43
241 | Q7Y | 2.36
242 | Q7G | 2.45
243 | Q7P | 2.57
244 | Q7C | 4.67
245 | Q7M | 2.68
246 | P8C | 2.52
247 | P8A | 2.97
248 | P8M | 3.06
249 | P8N | 3.01
250 | P8Q | 2.85
251 | P8K | 3.13
252 | P8H | 3.19
253 | P8F | 3.09
254 | P8L | 2.87
255 | P8D | 3.4
256 | P8R | 2.35
257 | P8E | 3.95
258 | P8G | 3.4
259 | P8I | 2.99
260 | T4P | 2.4
261 | T4C | 2.15
262 | T4F | 3.28
263 | T4H | 3.03

Row | Variant | protein stability index
264 | T4G | 2.91
265 | T4R | 3.08
266 | T4D | 3.31
267 | T4W | 2.1
268 | T4A | 2.8
269 | T4Y | 3.04
270 | T4K | 2.77
271 | T4M | 2.66
272 | T4N | 3.85
273 | T4L | 2.96
274 | T4Q | 2.33
275 | T4I | 3.36
276 | T4E | 3.27
277 | T4V | 3.29
278 | T4S | 3.14
279 | R1D | 3.34
280 | R1M | 2.33
281 | R1N | 3.26
282 | R1Y | 2.46
283 | R1K | 2.99
284 | R1G | 3.82
285 | R1L | 2.28
286 | R1P | 3.15
287 | R1A | 3.23
288 | R1V | 2.26

Row | Variant | protein stability index
289 | R1Q | 2.4
290 | R1W | 2.67
291 | R1I | 3.06
292 | R1E | 3.62
293 | R1T | 3.14
294 | R1C | 5.09
295 | R1F | 2.12
296 | R1H | 3.93
297 | R1S | 3.07
298 | T2M | 2.68
299 | T2E | 2.78
300 | T2D | 3.02
301 | T2C | 3.17
302 | T2K | 2.47
303 | T2H | 3.33
304 | T2Y | 2.81
305 | T2G | 2.77
306 | T2V | 2.88
307 | T2N | 2.52
308 | T2R | 3.46
309 | T2Q | 2.38
310 | T2I | 2.63
311 | T2W | 2.17
312 | T2F | 3.15
313 | T2A | 3.58

Row | Variant | protein stability index
314 | T2L | 2.82
315 | T2S | 2.53
316 | H3V | 2.65
317 | H3I | 3.08
318 | H3P | 3.17
319 | H3C | 2.85
320 | H3S | 3.16
321 | H3D | 3.18
322 | H3G | 2.76
323 | H3K | 3.06
324 | H3N | 3.82
325 | H3L | 2.75
326 | H3F | 3.25
327 | H3A | 2.69
328 | H3R | 3.47
329 | H3Y | 2.73
330 | H3W | 2.15
331 | H3T | 2.76
332 | H3Q | 2.64
333 | H3M | 2.57
334 | H3E | 3.1
